The numbers were not newly measured in PMC1854907, which cites them from elsewhere.

As usually defined, the Kd is the concentration at which binding is half-saturated.

The data set has as its target SCP2 PTS1 peptide (Homo sapiens). Kind of data set: ITC. (In general: In ITC the heat of successive injections is recorded.)

Consider “Pex5p(C) C-terminal domain (from UniProt P50542)”, for which the Kd is 0.664 µM.
